Results on 1 variant are retold here after IntAct's records for PubMed 19198587.

B1: Far upstream element-binding protein 2 (Homo sapiens), Q92945 (parent)
chain: MSDYSTGGPPPGPPPPAGGGGGAGGAGGGPPPGPPGAGDRGGGGPGGGGPGGGSAGGPSQPPGGGGPGIRKDAFADAVQRARQIAAKIGGDAATTVNNSTPDFGFGGQKRQLEDGDQPESKKLASQGDSISSQLGPIHPPPRTSMTEEYRVPDGMVGLIIGRGGEQINKIQQDSGCKVQISPDSGGLPERSVSLTGAPESVQKAKMMLDDIVSRGRGGPPGQFHDNANGGQNGTVQEIMIPAGKAGLVIGKGGETIKQLQERAGVKMILIQDGSQNTNVDKPLRIIGDPYKVQQACEMVMDILRERDQGGFGDRNEYGSRIGGGIDVPVPRHSVGVVIGRSGEMIKKIQNDAGVRIQFKQDDGTGPEKIAHIMGPPDRCEHAARIINDLLQSLRSGPPGPPGGPGMPPGGRGRGRGQGNWGPPGGEMTFSIPTHKCGLVIGRGGENVKAINQQTGAFVEISRQLPPNGDPNFKLFIIRGSPQQIDHAKQLIEEKIEGPLCPVGPGPGGPGPAGPMGPFNPGPFNQGPPGAPPHAGGPPPHQYPPQGWGNTYPQWQPPAPHDPSKAAAAAADPNAAWAAYYSHYYQQPPGPVPGPAPAPAAPPAQGEPPQPPPTGQSDYTKAWEEYYKKIGQQPQQPGAPPQQDYTKAWEEYYKKQAQVATGGGPGAPPGSQPDYSAAWAEYYRQQAAYYGQTPGPGGPQPPPTQQGQQQAQ

This assay covers variants of B1. The conditions noted are these: with akt1_human AKT1, P31749.
akt1_human AKT1, P31749, sequence (P31749 whole entry): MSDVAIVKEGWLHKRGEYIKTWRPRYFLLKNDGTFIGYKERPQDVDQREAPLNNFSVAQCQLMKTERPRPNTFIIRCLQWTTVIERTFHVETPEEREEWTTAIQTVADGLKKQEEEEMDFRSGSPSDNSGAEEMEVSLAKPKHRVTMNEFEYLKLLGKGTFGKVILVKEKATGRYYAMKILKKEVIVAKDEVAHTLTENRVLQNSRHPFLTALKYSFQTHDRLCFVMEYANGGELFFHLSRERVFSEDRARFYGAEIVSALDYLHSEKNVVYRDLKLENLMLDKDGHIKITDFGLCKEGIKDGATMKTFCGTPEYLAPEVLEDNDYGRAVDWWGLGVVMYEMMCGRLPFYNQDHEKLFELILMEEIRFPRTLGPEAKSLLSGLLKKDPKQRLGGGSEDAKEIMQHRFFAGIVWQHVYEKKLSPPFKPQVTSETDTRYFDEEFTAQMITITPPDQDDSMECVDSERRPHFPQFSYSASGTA
With S193A, the “effect of a mutation on the interaction” value was “disrupting interaction”.
